Experimental data as given in PMC12443421.
Read-outs that look alike come from different tables or passages of the source.

Key:
[1] = biological target: acidic patch mutant (APM) unmodified 147 bp nucleosome (H2A E61A, E64S, N68A, D72S, N89A, D90A, E91S), P62807;Q71DI3;P62805; assay: EMSA
[2] = biological target: acidic patch mutant (APM) H3K4me3 147 bp nucleosome (human) (UniProt P62807)
[3] = biological target: acidic patch mutant (APM) H3K4me3 147 bp nucleosome (human) (UniProt P62807); assay: native gel or EMSA; direct binding: 100 nM nucleosome and varying KDM5A; 50 mM HEPES pH 7.5, 50 mM KCl, 1 mM BME, 0.01% Tween-20, 0.01% BSA, 5% sucrose; 1 h on ice; gel at 4 C; SYBR gold; fit to specific binding with Hill slope
[4] = biological target: acidic patch mutant (APM) unmodified 147 bp nucleosome (H2A E61A, E64S, N68A, D72S, N89A, D90A, E91S) (human) (UniProt P62807); assay: as above
[5] = biological target: KDM5A^CAT (lysine demethylase 5A, residues 1-801) (UniProt P29375); assay: EMSA

Sequence of KDM5A^CAT (lysine demethylase 5A, residues 1-801) (from UniProt P29375 1-801) (domain or fragment) (P29375 1-801): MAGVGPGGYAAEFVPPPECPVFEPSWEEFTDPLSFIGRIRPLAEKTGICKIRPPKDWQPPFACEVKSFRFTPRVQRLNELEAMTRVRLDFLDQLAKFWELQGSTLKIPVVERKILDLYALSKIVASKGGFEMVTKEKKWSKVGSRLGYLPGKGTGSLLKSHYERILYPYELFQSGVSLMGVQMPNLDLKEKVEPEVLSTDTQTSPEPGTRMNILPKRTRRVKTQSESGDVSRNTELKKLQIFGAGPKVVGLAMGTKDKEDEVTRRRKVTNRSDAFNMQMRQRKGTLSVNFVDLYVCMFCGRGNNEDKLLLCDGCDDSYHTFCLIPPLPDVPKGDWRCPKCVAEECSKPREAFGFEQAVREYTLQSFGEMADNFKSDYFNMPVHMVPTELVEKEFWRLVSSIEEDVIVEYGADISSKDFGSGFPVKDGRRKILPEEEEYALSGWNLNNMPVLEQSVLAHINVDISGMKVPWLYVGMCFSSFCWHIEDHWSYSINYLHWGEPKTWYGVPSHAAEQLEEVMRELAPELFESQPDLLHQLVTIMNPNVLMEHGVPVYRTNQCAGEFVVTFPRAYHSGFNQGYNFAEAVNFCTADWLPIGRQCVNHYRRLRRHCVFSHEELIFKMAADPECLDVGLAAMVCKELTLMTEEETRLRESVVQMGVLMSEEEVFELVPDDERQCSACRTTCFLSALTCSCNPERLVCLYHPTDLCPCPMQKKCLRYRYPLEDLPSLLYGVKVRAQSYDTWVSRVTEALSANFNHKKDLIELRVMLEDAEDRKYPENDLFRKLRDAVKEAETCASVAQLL

Question: How did the Kd [1] turn out when “KDM5A^CAT (lysine demethylase 5A, residues 1-801) (from UniProt P29375) R210A; R217A; R219A; R220A; R232A; R264A; R265A; R266A; R271A; R280A; R282A” was run?
Answer: The Kd was 14 µM.

Question: And the Kd ([1]; 0-32 µM KDM5A^MutR titration)?
Answer: Its Kd is 14 µM.

Question: With “KDM5A^CAT (lysine demethylase 5A, residues 1-801) (from UniProt P29375) R280A; R282A” as the substance, how does the Kd [1] read?
Answer: The Kd was 12 µM.

Question: Which fold decrease in demethylation of H3K4me3 on APM 147 bp nucleosomes relative to wild-type nucleosomes, quantitative western blot, single turnover (5 uM KDM5A enzyme, 50 nM substrate, 50 mM KCl) [2] does the source give for “KDM5A^CAT (lysine demethylase 5A, residues 1-801) (from UniProt P29375 1-801) (domain or fragment)” here?
Answer: Its fold decrease in demethylation of H3K4me3 on APM 147 bp nucleosomes relative to wild-type nucleosomes, quantitative western blot, single turnover (5 uM KDM5A enzyme, 50 nM substrate, 50 mM KCl) is 9 fold.

Question: What about the fold lower affinity relative to the wild-type H3K4me3 nucleosome [3] of the same substance?
Answer: The fold lower affinity relative to the wild-type H3K4me3 nucleosome was 4 fold.

Question: And the fold loss in affinity relative to the wild-type 147 bp nucleosome [4]?
Answer: Its fold loss in affinity relative to the wild-type 147 bp nucleosome is 3 fold.

Question: “wild-type unmodified 147 bp nucleosome (nucleosome core particle) (from UniProt P04908;P62807;Q71DI3;P62805) H2A:E61A; H2A:E64S; H2A:N68A; H2A:D72S; H2A:N89A; H2A:D90A; H2A:E91S” was tested. Which Kd [5] did it give?
Answer: Its Kd is 12 µM.

Question: “KDM5A^CAT (lysine demethylase 5A, residues 1-801) (from UniProt P29375) R264A; R265A; R266A; R271A” was tested. Which Kd [1] did it give?
Answer: The Kd was 10.1 µM.

Question: Which Kd [1] does the source give for “KDM5A^CAT (lysine demethylase 5A, residues 1-801) (from UniProt P29375) R217A; R219A; R220A” here?
Answer: The Kd was 15 µM.
